This note sets out measurements from patent US8835609B2, “Antigen binding sites to non-functional oligomeric P2X7 receptors and methods of use thereof” (Biosceptre International Limited, priority 2009, dated 2014).

Test [1] concerns the target T1, red blood cells expressing function-capable P2X7 receptor (Mus musculus, UniProt Q9Z1M0).
T1 construct: from tissue; host or cells: red blood cells in formalin-fixed Lewis Lung tumour sections from antibody-treated mice
T1 sequence (Q9Z1M0 1-595): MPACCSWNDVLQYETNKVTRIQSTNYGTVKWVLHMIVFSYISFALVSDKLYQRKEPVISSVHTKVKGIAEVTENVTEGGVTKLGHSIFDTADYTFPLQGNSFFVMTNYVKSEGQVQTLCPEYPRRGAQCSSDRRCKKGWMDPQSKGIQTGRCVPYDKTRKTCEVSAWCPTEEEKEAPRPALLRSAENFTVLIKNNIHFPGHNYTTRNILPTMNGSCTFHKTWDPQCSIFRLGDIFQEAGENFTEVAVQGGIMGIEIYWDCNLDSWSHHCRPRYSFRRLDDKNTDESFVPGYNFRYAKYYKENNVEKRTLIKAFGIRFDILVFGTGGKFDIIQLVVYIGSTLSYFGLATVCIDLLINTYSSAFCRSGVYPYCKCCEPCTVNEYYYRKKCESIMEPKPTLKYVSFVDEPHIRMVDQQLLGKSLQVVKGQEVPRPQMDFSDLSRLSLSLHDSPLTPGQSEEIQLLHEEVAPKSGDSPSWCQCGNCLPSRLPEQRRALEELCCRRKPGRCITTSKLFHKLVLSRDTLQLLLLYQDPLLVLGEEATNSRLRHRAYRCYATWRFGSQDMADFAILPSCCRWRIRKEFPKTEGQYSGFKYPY
The test can be described thus: Binding to red blood cells in tumour sections. The test is classed as in vivo. To be noted: adjacent red blood cells in Lewis Lung tumour section. Here is the method:
Female BALB/c mice inoculated with the orthotopic syngeneic 4T1 murine mammary tumours in their third mammary fat pads or NOD/SCID female mice inoculated with the orthotopic human Hep3b xenograft tumour in their livers were treated intravenously with either a human domain antibody (2-2-1 hFc) directed at a monomeric target (epitope E200 on P2X7) or 2F6-hIgG1 directed at the compound epitope E200-300. All procedures approved by the Animal Ethics Committee at The University of Adelaide (M46-2008). Antibody penetration into the tumours was measured using Jackson Immunosearch goat anti-human antibody on tumour sections that were removed from the mice two days post antibody treatment. The tumours were fixed in 10% neutral buffered formalin for 48 hours, embedded in paraffin, sectioned to 5 um, deparaffinized, and stained for human antibody. The Biocare Mach 4 secondary detection system was used, comprising a specific goat antibody probe followed by a polymer with HRP then stained with DAB.

For a further test, the system named is Lewis Lung (LL) tumour. Description: Lewis Lung (LL) syngeneic xenograft model, lung metastases. The test is classed as in vivo, mouse. Particulars: Day 11. Here is the method: (§1) Dosing occurred every 3 days at antibody concentrations of 1 or 10 mg/kg i.v. or with PBS for treatment control or Sorafenib at 5 mL/kg daily as a positive control in the Lewis Lung model. Mice were randomised into equal groups of 10 mice, based on tumour volume on Day 0 of the studies.
(§2) Mice were anaesthetised for blood collection and euthanised by exsanguination via terminal cardiac bleed 48 hours post-final dose, on Days 11 or 14 post-initial treatment.
(§3) The lungs were excised from all mice. Lung surface metastases were counted and were categorised according to size: small (<1 mm), medium (≧1 mm and <3 mm) and large (≧3 mm). Excised lungs were preserved in 10% neutral buffered formalin.
The syngeneic Lewis Lung model was used with additional control groups. Besides the PBS control group of ten mice (Group 1), a positive control group using daily Sorafenib at 5 mL/kg was included (Group 5) along with antibody treatment groups consisting of sheep affinity purified E200-300 polyclonal antibody at 10 mg/kg (Group 2), 2F6-hIgG1 at 1 mg/kg (Group 3) and 2F6-hIgG1 at 10 mg/kg (Group 4).

Test [2] concerns 4T1 mouse breast tumour cells. Description: 4T1 syngeneic xenograft model, lung metastases. The test is classed as in vivo. Set-up: number of lung metastases, % of control / average metastasis volume, % of control / reduction of total metastasis volume / total metastasis volume, % of control: concentration or dose not given beside the values. To be noted: Day 14. Here is the method: Reagents for culture of 4T1 mouse breast tumour cells were obtained from the following suppliers: RPMI 1640 cell culture medium, FCS, Glutamax, HBSS and penicillin-streptomycin from Invitrogen Australia (Mt Waverley, VIC, Australia); and Trypan Blue from Sigma-Aldrich (Castle Hill, NSW, Australia). Matrigel™ was obtained from BD Biosciences (North Ryde, NSW, Australia).
Tumour cells (Passage 2 from working stock) were cultured in RPMI 1640 cell culture medium, supplemented with 10% FCS, 1% Glutamax and 1% penicillin-streptomycin. The cells were harvested by trypsinisation, washed twice in HBSS and counted. The cells were then resuspended in HBSS:Matriger™ (1:1, v/v) to a final concentration of 5×10^7 cells/mL.
as §1, §2, §3

B1: 2F6 hIgG1: mouse scFv from 2F6 grafted into a human format of type IgG1, expressed in HEK293 cells (antibody, V domains shown)
VH: DVKLVESGGGLVKLGGSLKLSCAASGFTFSSYYMSWVRQTPEKRLELVAAINSNGGSTYYPDTVKGRFTISRDNAKNTLYLQMSSLKSEDTAFYYCTRHYSSRFFDVWGAGTTVTVSS
VL: MADIVMTQSQKFMSTSVGDRVSVTCKASQNVGTNVAWYQQKPGQSPKALIYSASFRYSGVPDRFTGSGSGTDFTLTISNVQSEDLAEFFCQQYNSYPFTFGSGTRLEIK
On to B1, for which the “labelling of red blood cells” value in test [1] is given as “entirely unlabelled”. Further, the “Mean Lung Surface Mets” value with Lewis Lung (LL) tumour (antibody 1 mg/kg i.v. every 3 days) was determined as 0.9. The “Mean Lung Surface Mets” value in the test on Lewis Lung (LL) tumour (antibody 10 mg/kg i.v. every 3 days) is on record as 0.2. In the test with Lewis Lung (LL) tumour (antibody 10 mg/kg), the “inhibition of lung metastases relative to PBS control” value was found to be 96%. Further, the “number of lung metastases” value in test [2] (BALBc mice, i.v. every 3 days) is 3.4±0.7. Also, in test [2], the average metastasis volume is on record as 1.28 mm^3; the “average metastasis volume, % of control” value is recorded as 22%; the “number of lung metastases, % of control” value is 53%; the total metastasis volume stood at 43 mm^3. Moreover, the “total metastasis volume, % of control” value in test [2] is on record as 11.8%. For the same molecule, the “reduction of total metastasis volume” value in test [2] (listed as 2F6-hIgG1) came out at 88%. For the same molecule, in test [2] (listed as 2F6hIgG1), the “reduction of total metastasis volume” value came out at 89%.
